The values below come from article PMC2112911.

The target in experiment [1] is Acanthamoeba myosin-II (Acanthamoeba). The experiment can be described thus: electron microscopy.
For experiment [2] the target is unchanged. The experiment can be described thus: electron microscopy. This is another data set of the same source.
Experiment [3] addresses Acanthamoeba myosin-II, 2.6 heavy chain phosphates per molecule (Acanthamoeba). The experiment can be described thus: sedimentation.
For experiment [4] the target is unchanged. Briefly: sedimentation. The source holds these as a separate data set.
For experiment [5] the target is unchanged. The experiment can be described thus: sedimentation. The source holds these as a separate data set.
Experiment [6] shares this target. Briefly: sedimentation. This is another data set of the same source.
For experiment [7], the target named is Acanthamoeba myosin-II, 4.9 heavy chain phosphates per molecule (Acanthamoeba). The experiment can be described thus: sedimentation.
For experiment [8], the target named is Acanthamoeba myosin-II, dephosphorylated, 0.8 heavy chain phosphates per molecule (Acanthamoeba). Briefly: sedimentation.

Where “and” joins values, the source holds several entries; their conditions need not be identical. Identical values can stand only once. Like-named read-outs stand apart in the source and are kept apart here. A value given as a limit tells only on which side of the number the result lay.

As for Acanthamoeba myosin-II (complex), the stoichiometry N (commonly the number of molecules, sites or subunits per partner or assembly) in experiment [1] is over 35; in experiment [2], 16 and > 12.

For the substance “Acanthamoeba myosin-II, 2.6 heavy chain phosphates per molecule (complex)”, the critical concentration in experiment [3] is 26 µg/mL; in experiment [4], 20 µg/mL and 15 µg/mL; in experiment [5], 24 µg/mL and 32 µg/mL; in experiment [6], 14 µg/mL and 18 µg/mL and 15 µg/mL.

Substance “Acanthamoeba myosin-II, 4.9 heavy chain phosphates per molecule (complex)” returned a critical concentration in experiment [7] of under 5 µg/mL.

In experiment [8], “Acanthamoeba myosin-II, dephosphorylated, 0.8 heavy chain phosphates per molecule (complex)” returned a critical concentration of 18 µg/mL.
